Read-outs that look alike come from different tables or passages of the source.
Key:
[1] = molecular target: T1, recombinant human CSF-1 (human) (UniProt P09603); experiment: cell-based or functional assay
T1 sequence (looked up): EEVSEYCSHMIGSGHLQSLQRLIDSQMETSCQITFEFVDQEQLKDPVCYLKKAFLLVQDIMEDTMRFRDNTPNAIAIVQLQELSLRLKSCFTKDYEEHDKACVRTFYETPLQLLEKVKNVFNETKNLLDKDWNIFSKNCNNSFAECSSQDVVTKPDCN

[2] = molecular target: T1, recombinant human CSF-1 (human); experiment: cell-based or functional assay; remark: listed apart in the source

c-fms-Fc, human c-fms extracellular domain (residues 1-512) with a C-terminal human Fc domain, sequence (P07333 20-512): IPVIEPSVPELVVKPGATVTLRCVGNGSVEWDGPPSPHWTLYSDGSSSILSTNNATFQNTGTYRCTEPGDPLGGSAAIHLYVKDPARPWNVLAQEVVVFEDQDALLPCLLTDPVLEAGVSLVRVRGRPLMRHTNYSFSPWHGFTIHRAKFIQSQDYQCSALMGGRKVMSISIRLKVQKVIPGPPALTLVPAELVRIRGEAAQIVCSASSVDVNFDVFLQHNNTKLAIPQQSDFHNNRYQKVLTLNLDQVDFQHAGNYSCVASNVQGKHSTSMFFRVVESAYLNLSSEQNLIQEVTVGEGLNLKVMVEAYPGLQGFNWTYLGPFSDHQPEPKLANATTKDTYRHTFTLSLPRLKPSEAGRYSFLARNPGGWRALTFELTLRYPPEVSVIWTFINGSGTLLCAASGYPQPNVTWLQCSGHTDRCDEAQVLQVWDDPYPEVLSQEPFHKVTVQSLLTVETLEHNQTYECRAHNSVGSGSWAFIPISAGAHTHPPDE

Substance: c-fms-Fc, human c-fms extracellular domain (residues 1-512) with a C-terminal human Fc domain (from UniProt P07333 20-512) (Fc fusion)
- AML-5 bioassay IC50 [1]: 0.034 µg/mL
- Cynomolgus bone marrow bioassay IC50 [1]: 0.1 µg/mL
- Human CD14+ monocytes bioassay IC50 [1]: 0.09 µg/mL
- AML-5 bioassay IC50 [2]: 0.21 nM
- Cynomolgus bone marrow bioassay IC50 [2]: 0.617 nM
- Human CD14+ monocytes bioassay IC50 [2]: 0.556 nM
